From publication PMC6347818

Assays:
[1] = biological target: recombinant Plasmodium vivax Apical Membrane Antigen 1, PvAMA1-His6 (Plasmodium vivax) (UniProt Q9TY14); experiment: ITC; MicroCal VP-ITC; 9.43 µmol/L PvAMA1-His6 in the cell titrated with 300 µmol/L peptide (10 µL injections), 25 °C, PBS; one-site model
[2] = biological target: recombinant Plasmodium vivax Apical Membrane Antigen 1, PvAMA1-His6 (Plasmodium vivax) (UniProt Q9TY14); experiment: SPR; Biacore T200; PvAMA1-His6 amine-coupled on a CM5 chip; peptides injected at 50 µL/min, 25 °C, PBS; steady-state model, apparent KD

cyclic PvRON2 (2035-2074) peptide gave a Ka [1] of 300000 M⁻¹, a dH [1] of -36 kcal/mol and a stoichiometry N (peptide/protein) [1] of 0.6. The Kd [2] was 23.9 µM.
